B1: HDV Ribozyme (parent)
chain: GGCCGGCAUGGUCCCAGCCUCCUCGCUGGCGCCGGCUGGGCAACAUUCCGAGGGGACCGUCCCCUCGGUAAUGGCGAAUGGGACCCA

Variants of: B1
Test: self-cleavage, relative activity (ratio to wild type); higher = more cleavage; co-transcriptional

Variant	self-cleavage
CGCCGGCAUGGUCCCAGCCUCCUCGCUGGGGCCGGCUGGGCAACAUUCCGAGGGGACCGUCCCCUCGGUAAUGGCGAAUGGGACCCA [G1C C30G]	0.128
GGCCGGCAUGGUCCCAGCCUCCUCGCUCGCGCCGGCAGGGCAACAUUCCGAGGGGACCGUCCCCUCGGUAAUGGCGAAUGGGACCCA [G28C U37A]	0.229
GGCCGGCAUGGUCCCAGCCUCCUCGCUGGCGCCGGCUGGGCAACAUUCAGAGGGGACCGUCCCCUCGGUAAUGGCGCAUGGGACCCA [C49A A77C]	0.252
GGCCGGCCUGGUCCCAGCCUCCUCGCUGGGGCCGGCUGGGCAACAUUCCGAGGGGACCGUCCCCUCGGUAAUGGCGAAUGGGACCCA [A8C C30G]	0
GGCCGGCAUGGUCCCAGCCUCCUCGCUGGCCCCGGCUGGGCAACAUUCCGAGGGGACGGUCCCCUCGGUAAUGGCGAAUGGGACCCA [G31C C58G]	0.289
GGCCGGCAUUGUCCCAGCCUCCUCGCUGGCGCCGGCUGGGCAACAUUCCGAGGGGACCGUCCCCUCGGUACUGGCGAAUGGGACCCA [G10U A71C]	0.604
GGCCGUCAUGGUCCCAGCCUCCUCGCUGGCGCCGGCUGGGCAACAUUCCGAGGGGACCGUCCCCUCUGUAAUGGCGAAUGGGACCCA [G6U G67U]	0.62
GGCCGGCAUGGUCCCAGCCUCCUCGCUAGCGCCGGCUGGGCAACAUUCUGAGGGGACCGUCCCCUCGGUAAUGGCGAAUGGGACCCA [G28A C49U]	0.0683
GGCCGGCAUGGUCCCAGCCUCCUCGCCGGCCCCGGCUGGGCAACAUUCCGAGGGGACCGUCCCCUCGGUAAUGGCGAAUGGGACCCA [U27C G31C]	0
GGCCGGCAUGGUCCCAGACUCCUCGCUGGCGCCGGCUGGGCAACAUUCCGAGGGGACCGUCCCCUCGGUAAUGGCGAAUGGGAGCCA [C18A C84G]	0.0437
GGCCGGCAUGGUCCCGGCCUCCACGCUGGCGCCGGCUGGGCAACAUUCCGAGGGGACCGUCCCCUCGGUAAUGGCGAAUGGGACCCA [A16G U23A]	1.11
GGCCGGCAUGGUCCCAGCCUCCUCGCUGGCGCCGGCUGGCCAACAAUCCGAGGGGACCGUCCCCUCGGUAAUGGCGAAUGGGACCCA [G40C U46A]	0.0339
GGCCGGCAUGGUCCCAGCCUCCUCGUUGGCGCAGGCUGGGCAACAUUCCGAGGGGACCGUCCCCUCGGUAAUGGCGAAUGGGACCCA [C26U C33A]	0.307
GGCCGGCAUGGGCCCAGCCUCCUCGCUGGCGCCGGCUGGGCAACAUCCCGAGGGGACCGUCCCCUCGGUAAUGGCGAAUGGGACCCA [U12G U47C]	0.437
GGCCGUCAUGGUCCCAGCCUCCUCGCUGGCGCCGGCUGGGCAACAUUCCGAGGGGACCGUCCCCUCGGUAAUGGCGAAUGGGACGCA [G6U C85G]	0.297
GGCCGGCAUGGUCCCAGCCUCCUCGCUGGCGCCGGCUGGGCAACAUUCCGUGGGGACCGUCCCCUCGGUAAUUGCGAAUGGGACCCA [A51U G73U]	0.504

Variant	self-cleavage
GGCCGGCAUGGUCCCAGCCUCCUCGCUGGCGCCGGCUGGGCAUCAUUCCGAGGGGACGGUCCCCUCGGUAAUGGCGAAUGGGACCCA [A43U C58G]	0.7
GGCCGGCAUGGUCCCAGCCUCCUGGCUGGCGCCGGCUGGGCAACAUUCCGAGGGGACCGUCCCCUCGCUAAUGGCGAAUGGGACCCA [C24G G68C]	0.126
GGCCGGCAUGGUCCCAGCCUCCUCGCUGGCGCCGGCUGGGCAACAUUCCGAGGGGACCUUCCCCUCGGUAAUGCCGAAUGGGACCCA [G59U G74C]	0.271
GGCCGGGAUGGUCCCAGCCUCCUCGCUGGCGCCGGCUGGGGAACAUUCCGAGGGGACCGUCCCCUCGGUAAUGGCGAAUGGGACCCA [C7G C41G]	0.128
GGCCGGCAUGGUCCCAGCCUCCUCGCUGGCGCCGGCUGGGCAACAUUCCGAGGUGACCGUCCCCUCGGUAAUGUCGAAUGGGACCCA [G54U G74U]	0.421
GGCCGGCAUGGUCCCAACCUCCUCGCUGGCGCCGGCUGGGCUACAUUCCGAGGGGACCGUCCCCUCGGUAAUGGCGAAUGGGACCCA [G17A A42U]	0.119
GGCCGGCAUGGUCCCAGCGGCCUCGCUGGCGCCGGCUGGGCAACAUUCCGAGGGGACCGUCCCCUCGGUAAUGGCGAAUGGGACCCA [C19G U20G]	0.138
GGCCGGCAUGGUCCCAGCCUCCUCGCUGGCGCCGGCUGGGCAACAUUCCGAGGGAACCGUCCCCUCGGUAAUGGCGUAUGGGACCCA [G55A A77U]	0.694
GGCCGGCAUGGUCCCAGCCUCCUCUCUGGCGCCGGCUGGGCAACAUUCCGAGGGGACCGUCCCCUCGGUAAUGUCGAAUGGGACCCA [G25U G74U]	0.0268
UGCCGGCAUGGUCCCAGCCUCAUCGCUGGCGCCGGCUGGGCAACAUUCCGAGGGGACCGUCCCCUCGGUAAUGGCGAAUGGGACCCA [G1U C22A]	0.441
GGCCGGCAUGGUCCCAGCCUCCUCGCUGGCGCCGGCUGGGCAACAUUCCGAGUGGACCGUCCCCUCAGUAAUGGCGAAUGGGACCCA [G53U G67A]	0.855
GGCCGGGAUGGUCCCAGCCUCCUAGCUGGCGCCGGCUGGGCAACAUUCCGAGGGGACCGUCCCCUCGGUAAUGGCGAAUGGGACCCA [C7G C24A]	0.208
GGCCGGCAUGGUCCCAGCCUCCUCGCUGGCGCCGGCUGGGCAACAUUACGAGAGGACCGUCCCCUCGGUAAUGGCGAAUGGGACCCA [C48A G53A]	1.05
GGCCGGCAUGGUCCCAGCCUCCUCGCUGGCGCCGGGUGGCCAACAUUCCGAGGGGACCGUCCCCUCGGUAAUGGCGAAUGGGACCCA [C36G G40C]	0.185
GGCCGGCAUGGUCCCAGCCUCCUCGCUGGCGCCGGCUGGGCAACAUUCCGAGGGGACCGUCCCCUCGGUAAUGGCGCAUGGGAGCCA [A77C C84G]	0.317
GGCCGGCAUGGUCCCAGCCUCCUCGCAGGCGCCGGCUGGGCAACAUUCCGAGGGGACCGUCCCCUCGGUAAUGGCGAAUGGGACCCC [U27A A87C]	0.88
